Source: publication PMC7949077

What was measured:
Assay in all cases: SPR
[1] = test system: HuR (ELAVL1); conditions: HuR alone; SPR: HBS-EP buffer, Biacore T200 SA chip, 1:1 fit. UV crosslinking/EMSA: 2x RNA-binding buffer listed as 5 mM HEPES, 25 mM KCl, 2 mM MgCl2, 2 mM DTT, 0.1 mM …
[2] = test system: La (lupus antigen, SSB);HuR (ELAVL1); conditions: equimolar La and HuR, same total protein; 1:1 fit; SPR: HBS-EP buffer, Biacore T200 SA chip, 1:1 fit. UV crosslinking/EMSA: 2x RNA-binding buffer listed as 5 mM HEPES, 25 mM KCl, 2 mM MgCl2, 2 mM DTT, 0.1 mM …
[3] = test system: La (lupus antigen, SSB); conditions: SPR: HBS-EP buffer, Biacore T200 SA chip, 1:1 fit. UV crosslinking/EMSA: 2x RNA-binding buffer listed as 5 mM HEPES, 25 mM KCl, 2 mM MgCl2, 2 mM DTT, 0.1 mM …

PDCD4 3'UTR full length showed a Kd [1] of 42.7 nM, a Kd [2] of 10.5 nM and a Kd ([3]; La alone, first experiment) of 27 nM. For the same substance, the Kd ([3]; La alone, second experiment) was 22 nM and the Kd ([3]; equimolar mix with HuR triple mutant (non-binding), same total protein) was 27.5 nM.
